Measured values from the NTF2 design screens of Basanta et al. (2020).

Test: protease stability score; higher = more stable; yeast display proteolysis, trypsin and chymotrypsin;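 further: relative to predicted unfolded state with 0 unfolded-like and 1 meaning tenfold more protease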

| Sequence | protease stability score |
| --- | --- |
| SEEDEDAMRSAEFLVKKLNTGDEDWYQHLFDPHTKLEIGNFTSHGMHVSLKQWREMGADHVHVQDIDVFDGRVHVRTHIHVNGQTVEVLIILVKVNGRWIVERIRMK | 0.66 |
| SEEDEDKELVRHLVEKLIKTGDETLMHEMFDPNARLRVNGRDFHGRESIVKAMLEFLRWLGVDHIHFEHIIVRIVDGRIEINVTVRVEQGDKRTELRIHTRATKIDGKWILTSLTLDVR | 1.13 |
| SEEDEDVKRILELWLRSEETGDEHLSLELADPNTRKHQGDKEFHGMSKLVQLLAELYRRADHSHFIEKRVEVFENHVRIVGHFVLIVGEFRIVVDILILARKIDGRWILTRVNWR | 1.51 |
| SEEDEEAERMVRALNHKFRTGDWELSEKLFDPNTKLEIIINGKHIDIHGREMVIRLMEDELRRFDHVDIEIKRVDSQGEKANNDGVLVIKQGDFEVRHRFTLIIHVVNGVIKKISILFH | 0.996 |
| SEEDEEAERWVRMLEHLIRTGDEEILNSFADPNVRYIQGDKHLHGRETVYEYLEELWRKLGVDHMNIKDRHLRVFNGRVHLQLFVHFTVNGRSFDSILRFDTIKIDGQWHMHRIVVEII | 1.31 |
| SEEDEEFKHHIKLLIESLETGDWRTDRRLADPHVRLEVGDKTIHGMDEYLEFMSEIRFTRLEISSVEIQGDKLHANGETDGIVNGKRVKVESTFIIIKVDGRWIIEHERMH | -0.372 |
| SEEDEEFRHVVERWVRAVTTGNEDELESLLDPNVRLDVGDKRTHGREKWTELFRHLRTQVHHIEITEKHTVGDKVHYRGTLDMTFYVDGVDVRSETETTLVMVKYNGRWQYTHVIIH | 1.15 |
| SEEDEEIHRNLRILVEAIHTGDETTMSKLIDPHARLKVGDKDHHGREKMTEFLIELGIDHIVFRRTRIINGRAEHHGHIKVGDKKMETRIISDKIDGKWIITEVIIH | 1.51 |
| SEEDEELKEWLEEFVHALKTGDENLLQRLADPNTRLIFDGRKFHGREEYRKNYEHLRHRIDHIHDEKSTTVHLINGKVTVESRLDGEINGKRIIFKTIIFYWKFDGRWFLRSEEIR | 0.935 |
| SEEDEELREMARLIILLEWTGDEETFEHLADPHVRSHINGVHLHGRETVSKWLMHVREHLRFNDIRIRDLWVFNGKVKINGEYDGHVNGRRIRYTVHLYFVIIDGRIREISREHR | 0.301 |
| SEEDEERKHFLELWRESFETGDEDSSRDMADPNTRIHIGDKEQVGWEDVMHEMVKIKNARYHIVVHHVEIQGDKLTMDGEVRIDVNGRLIQIRTIIIARKYDGRWIVTHVHIH | 1.3 |
| SEEDEETEHITRLIFRAMVTGDWKELLDNLDPHTRVDINGRDQHGWEVMREWVERIKNVQLRIRRISVQGDKTRLDTEFRQGDKSVHVEVRITIVDGVVQHIEFKDR | 1.6 |
| SEEDEETRKFLDLLFETRHTGDEEMSRQLADPNYQEEFENHTFHGREDFSRFIKELRIHEIRITHIYAQGDKLHIDGELRGEFNGQEVRFRVELHVVKIDGRWVLKSMRVV | 1.44 |
| SEEDEEVRHVLELLIHAWRTGDERLLMHLLDPHAKFIVGDKELHGREQISRVWKELRIEDSDVHSIELVNGRLRLDTHLIITIGDKHVDVKTRELIVKIDGRWVLEFLEVR | 1.37 |
| SEEDEFNREMRREIIEAWETGDFRIIEKLLDPNAKVVVGDYIDHGRHAIEVWLKRYDVRRRRDYKHVEVYDGVIRSDVRMDGEINGQRKITSVHIIFVIINGRIHQVEIHIH | 1.25 |
| SEEDEFVHEMVEILLKMFLTGDFQHFKRLADPHVMFVFNGKRFHGRHWVLDELIRFPNIKFELTHYEFDDINGVVHINIFGQRDVDGKNENVELHFVVEKVDGRWKIHRIIFRLR | 1.11 |
| SEEDEHAEHMLRLWLHAIETGDEKLLLELVDPHAKNDVNGVDLHGRHEVWRHVYEMLHKFKNIRWDITETRYIGDYVHIRGILRQGDKTHDIRIKVVSFNGRIKKVEIRIE | 2.48 |
| SEEDEHLERLFRDLIDSFVTGDEDSWHQLADPNARLIVGDKTYHGREKISEYWRRMREEIRVEIKVDHVDIQGDKVHSRVTLIVRINGREIRRDTHMLIIVWNGRFKEERIIPR | 1.25 |
| SEEDEHLRHLAELFVKLLLTGDFNTLHHLLDPHVKFNIGEFESHGMEHLWRAWEEWRFHHISLEDVRVQGDKAHLHFRSTVHYNGRTKRVDTHVEIKVVNGRFKEVHIRIH | 1.59 |
| SEEDEHMRRLVEIIIHNWHTGDEEKLANMMDPNAKSNINGVELIGRDLITSFLKEELKRLGVKHVHDTEIHLQGNKSIIHSRVHVNGVDIEMEIIIIIIDGVIKEVEWRRR | 1.96 |
| SEEDEHSERALTLLNHLIMTGDFHDWERFFDPHVRFVVNGVEFHGREDVVRFLLELLERFKNVKIEMESWEIQGDKITSHYHEHVNGVRIERTVIMRKFNGRWFIQEVRFN | 0.281 |
| SEEDEIAEKILRLYLELFKTGDWRRFEELLDPNVRLEFNGRFYHGREEISRIMKEFHNKFKNVRIELTSFEVQGEKNIMRSSENINGVERETEIYLDIWNGRIQSLIIRVR | 2.25 |
| SEEDEIAKHVWERFFKNVLTGDEDTLLRLLDPDTRLIVIIGDKEIHLHGREELSKFLSELRIHHLEITDWVSQGEKARTHVRSDGTVDGKRHHTEMELILIVINGRIKEIRILVR | 1.07 |
| SEEDEIMRRLIDITLHAFQTGDWEAVKTMADPNTRLHVNGRDIHGRDEILRFLEKSRRDLGVENIRIDYTDYRQFDGKVKYHGTDIYNGQRLETTIIIVIVDGKMKTETREIR | 0.82 |
| SEEDEIVRKLSEIMIHSLETGDFDSFRELADPDYRIETEDHEIVGMEEFERWLKEHLDRFDYDKWEYHSLHIYGDKVKMDIELHLDIDGVKRTHDVYIIIRKYNGQWIVESFMFK | -0.384 |

| Sequence | protease stability score |
| --- | --- |
| SEEDEKKEEETRLMLEWWRTGDEHAIARNMDPDARLEVDGKERHGREEVLRFISEMLKRLGVDHVRITDWRIIGDFVEVDLSIEVGDKSRKFHLHFFIIDGRIKEIKIDER | 1.39 |
| SEEDEKSHKLWEEMLEIFMTGDWKRESELADPEARRVFIVDGVNHVFHGRETITEALLRWHKEMRVHDFKLHDRRYQGEKFHVDGIVDGEYNGKKRIYEVEIIIIVVDGRVHSLEFEHK | 0.296 |
| SEEDELAHRWVRTWVRAVETGDEDTLTELFDPHARIIITIGDKDIRLHGMHEMLRWYRFFKGMRIELEDMDIQGEKIDTDIRLHQGDKTTTTKLQLHIVNGRMEHVILRVQ | 1.54 |
| SEEDELAKRILETLVRLLLTGNEELRHELADPNMRTEVDGVDLWGMHNDVHFWREIRLKELRIRHIEVQGDKSHSITDLDVEIDGKRIRVETKIRVVVVNGKIHRLHVRID | 1.51 |
| SEEDELAKYVIRLWVEEFRTGDEESMFRLLDPHVLVQQGDKEYHGRERWEDFIRKLGLQNVRVEVHRVTIQGEFIHVDGIIEIGDKRTRYILYFEKFNGRWINKELRIK | 1.48 |
| SEEDELAMEFMREQDRNQETGDWRRLSELADPNTRVEVNGREIHGMELWIKLLINKLREHGMEVRLHVERVEFYDGVADLDLRLYIHINGKDIHFHTQIIILKINGKWILKYIIIR | 1.25 |
| SEEDELAREVSRIFTEASRTGDEERLIRLIDPHAKIQIGDKHFIGREDMEEWTRRLVERVDHLEVFIEDSRLIGNKLDVKGLFIEDYGDKRTVLEVRWILVKINGRWSIHSLHFK | 1.23 |
| SEEDELDERLLKIMRHAFETGDEEIFMRLVDPHTRTEFNGQEVHGREHLHRWLKEILRTLGVKYVERKDIRAWDGRIHLEFEMHVNGRTLKLTVVVIFINGKLHEYSERIE | 1.61 |
| SEEDELLREVFELWVEIVRTGDESRLKKLLDPHVRLIYNGRRYHGWEEVVRFYREWRIKSMSIHSIETQGDKAHANSETDIEYNGKRERSDIRIHMIVINGRIHHIEIREH | 2.39 |
| SEEDELMEEWRRLFIHSFLTGNEDELHRLIDPNARFIINGVNLHGWKALETKLRELGAKHIEVRERHEHRQGNKLELHVHIIIHQGDKDLREDVRIENEKVNGRWVVRTIEEK | 1.07 |
| SEEDELNHRISHLLTRMRRTGDEDTWHRLADPNMRLEINGVISHGREEALRILSEVDDILGIDRFSVHLDRYTWDGNYIHNDMTFEINGRDLRVHVDSLVINGRMHHERVRVE | -0.516 |
| SEEDELTRELVELWLHVFHTGDEEIMYKLADPNARVDVLIDGKRLDLVGREEIRRFLHEWHREAGFKHFDLHDIHFQGEKVHIDGREVYGDKFFRVIIHIHIVNGRIKSTKIEIR | 1.67 |
| SEEDELYRHIAEHLLHLLHTGNEEILDHLLDPHVKLEINIGDKRDEFIGRHSLREWLSRFKNVKLHVHDDKVINGVNHVDGTLDINGRRTHIEIHLHVYNGKVRRLQFNIH | 1.62 |
| SEEDEMAEEMMRWFLEILETGNEELFNHYADPNVIDIVGDKRVHGMDRFSELHHIFLRHWRIHRRRENTIETYNGRAHIDGEIEGKVNGREKNIRVEIKLNVVNGVIKKVEVTYN | 0.379 |
| SEEDEMIEELMRTIIRLFHTGDWEKKAKLMDPNTRSVIGDKHAHGREEIVRLFLEYWRELGIDHISIHDVKLQGDKVIVNGKLRVGEKTIDVRIHYVVVNGRLKSERFEEE | 0.327 |
| SEEDEMSKRFLDDLLHNLRTGDFDRLKNELDPHAKLVVDGQELHGMELASKRDLEMRVNHLEIRHVEIQGEWIHLKGEMDGEVNGKRNIHEVHVLLFKINGRWYVREVWIR | 1.41 |
| SEEDEMVRYVFELYAIAIETGDEDTLRNMFDPNAKIKFDGVDIHGRENIKRILREWRSSVHHWQIREKEIYGDKISLNVFQDLRFTIDGQFRRITTEVKVEIIKINGKWFFTHLEYI | 0.995 |
| SEEDEQSKKILHIFIEILKTGDFETLEHMLDPNAKLDIDGRDLHGRELFLSMWEEFVRQYKNLRIIFRDYRLYGDYVIIHGQLRINGKTHDLRFHIVNINGRLKHLKIEHE | 1.46 |
| SEEDERTYKVAKDWHEALQTGNEEIMERLLDPHVRIDVVVDGKKSHKHGMEVVSETLRRIREHLRMKWEIHRVDAQGDKLFVDGRYHIEVGDKKEHYIMHVLMIVIDGRLHSLTIRNE | 1.1 |
| SEEDEVSERLAREYLHIWKTGDEDRLAKLLDPHTRFIYVIGDKELELIGRDKFAEFLRHLWEELGVNHFDVHDFKVYGEKVQLDTTEEYGDKNFRMHIDIVVIDGKVKFIRIKER | 1.33 |
| SEEDEVTEKLVRLMIHAHHTGDEDLLKTLADPNVRLTIDYNGVKLTSHGREEFVRLLREWKRQIRIEDRKTTESHVYGNFAINNHVELGEFDGRRDRFEVRLHFVVFNGRVKEEKIKFD | 1.45 |
| SEEDEVYEEALKITERLERTGNEEDLRTYADPHAKLRFIVDGKTIEIHGREDFVHEVVRYWKRFKNLTVRIERVEFQGDKLHLIGRLHIDGREVIIHMLSVKFNGRWFVENLHIEFV | 1.41 |
| SEEDHDRELWISLLKKEAETGDERQVRENLDPNVQLDVGDKTFHGREIVLDHIHEEWKRLGLDRIKLFVDSIRIQGDKVRLDGSLDVNGKEIRVNIFLRKINGRWHIEFIHID | 0.666 |
| SEEDHEHKVLTELSRKDWRTGNEHDLERLMDPNVRVEVDGREHHGWESAHELAKHFHRFFKNATLEIRHEEIQGEYLHIEMIIRVGDKVFDVHFIARKINGRWVLTEFSVH | 0.261 |
| SEEDHELRIASEIMIKTTRTGDERLIKELFDPNTQIDFDGQELHGWKFVRRLDEEMRMHRSETKSYERYGDKIVIDIEVDVEFNGVRTRIRVTIIARKVNGRWLNEVMIIH | 1.14 |
